Measured values as given in patent US20200109197A1.

Target: recombinant anti-human CD3 antibody with TEV cleavage site in the upper hinge region of mouse IgG1 (mouse) [IgG part: P01868]
Experiment: cell-based or functional assay

Substance: AcTEV™ Protease (from UniProt P04517 2038-2279) (enzyme)
- kappa-positive faction of beads after one hour incubation with the protease, 37° C.: 7%
- kappa-positive faction of beads after one hour incubation with the protease, room temperature: 19%
